The target of this test is human complement component C3 (human, UniProt P01024 23-1663). The experiment in a line: cell-based or functional assay.
human complement component C3, sequence (P01024 23-1663 limits assumed): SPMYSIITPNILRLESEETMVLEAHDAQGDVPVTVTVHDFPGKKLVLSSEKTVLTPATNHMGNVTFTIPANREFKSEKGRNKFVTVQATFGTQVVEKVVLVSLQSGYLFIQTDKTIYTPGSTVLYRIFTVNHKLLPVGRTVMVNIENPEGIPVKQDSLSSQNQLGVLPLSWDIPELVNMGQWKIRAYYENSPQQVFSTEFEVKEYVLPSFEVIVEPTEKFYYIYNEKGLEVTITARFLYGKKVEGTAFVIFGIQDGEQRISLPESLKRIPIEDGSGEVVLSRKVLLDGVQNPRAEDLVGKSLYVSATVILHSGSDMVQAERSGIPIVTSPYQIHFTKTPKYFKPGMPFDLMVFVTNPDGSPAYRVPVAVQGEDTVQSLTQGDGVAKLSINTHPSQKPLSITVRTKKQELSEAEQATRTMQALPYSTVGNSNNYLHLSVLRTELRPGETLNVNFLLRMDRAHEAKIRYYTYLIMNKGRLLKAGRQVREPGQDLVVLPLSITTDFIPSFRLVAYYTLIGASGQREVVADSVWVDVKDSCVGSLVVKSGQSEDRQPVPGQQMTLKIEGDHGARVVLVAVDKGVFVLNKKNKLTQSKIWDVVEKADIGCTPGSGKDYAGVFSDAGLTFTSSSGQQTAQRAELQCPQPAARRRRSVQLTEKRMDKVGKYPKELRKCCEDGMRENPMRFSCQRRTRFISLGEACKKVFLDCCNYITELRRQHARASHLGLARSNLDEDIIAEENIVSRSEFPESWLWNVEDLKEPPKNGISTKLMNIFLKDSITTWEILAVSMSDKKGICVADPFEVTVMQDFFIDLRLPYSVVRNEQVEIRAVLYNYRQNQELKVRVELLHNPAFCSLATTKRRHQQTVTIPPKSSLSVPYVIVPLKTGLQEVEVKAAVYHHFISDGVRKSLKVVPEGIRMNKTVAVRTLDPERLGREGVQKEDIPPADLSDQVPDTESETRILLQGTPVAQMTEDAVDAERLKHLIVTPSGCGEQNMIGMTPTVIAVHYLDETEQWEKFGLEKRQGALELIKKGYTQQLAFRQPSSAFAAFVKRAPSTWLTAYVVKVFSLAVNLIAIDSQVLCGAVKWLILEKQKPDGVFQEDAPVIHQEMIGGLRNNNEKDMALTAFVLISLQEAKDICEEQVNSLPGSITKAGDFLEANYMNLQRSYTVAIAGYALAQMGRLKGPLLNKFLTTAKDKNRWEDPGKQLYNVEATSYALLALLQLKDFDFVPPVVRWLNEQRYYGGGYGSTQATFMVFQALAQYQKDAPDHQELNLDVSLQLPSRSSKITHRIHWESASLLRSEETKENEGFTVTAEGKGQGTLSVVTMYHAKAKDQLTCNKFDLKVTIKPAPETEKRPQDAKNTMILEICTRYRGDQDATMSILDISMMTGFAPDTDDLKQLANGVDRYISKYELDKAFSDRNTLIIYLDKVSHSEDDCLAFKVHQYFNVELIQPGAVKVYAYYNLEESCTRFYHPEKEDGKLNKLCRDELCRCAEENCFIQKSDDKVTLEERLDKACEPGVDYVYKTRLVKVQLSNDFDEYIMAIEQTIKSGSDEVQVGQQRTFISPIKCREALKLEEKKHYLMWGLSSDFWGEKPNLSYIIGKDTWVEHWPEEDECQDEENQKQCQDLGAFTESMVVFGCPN

B1: CA28-AEEAc-Lys-(PEG30k) (peptide)
peptide: ICVWQDWGAHRCTK
modifications: N-terminal acetyl; 1-methyl-tryptophan at position 4; disulfide Cys2-Cys12; AEEAc (8-amino-3,6-dioxaoctanoic acid) spacer between Thr13 and the C-terminal Lys; linear monofunctional 30 kD PEG coupled (NHS ester) to the Lys side chain; C-terminal amide
With B1, the “activity relative to CA28 on a molar basis, classical complement inhibition assay” value was around 30% and the “complement inhibiting activity relative to CA28 on a molar basis” value was ~30 % of the activity of CA28.

B2: (CA28-AEEAc)8-PEG40k (peptide)
peptide: ICVWQDWGAHRCTK
modifications: N-terminal acetyl; 1-methyl-tryptophan at position 4; disulfide Cys2-Cys12; AEEAc spacer between Thr13 and the C-terminal Lys; Lys side chain coupled to one arm of an eight-arm 40 kD PEG (hexaglycerol octa(succinimidyloxyglutaryl)polyoxyethylene); C-terminal amide
For the molecule B2, the “IC50 on a molar basis (corrected for 7.5 CA28 moieties per molecule), classical complement inhibition assay (C3b deposition ELISA, human plasma)” value was around 260 nM.

B3: CA28-AEEAc-Lys-(PEG40k) (peptide)
peptide: ICVWQDWGAHRCTK
modifications: N-terminal acetyl; 1-methyl-tryptophan at position 4; disulfide Cys2-Cys12; AEEAc (8-amino-3,6-dioxaoctanoic acid) spacer between Thr13 and the C-terminal Lys; linear monofunctional 40 kD PEG coupled (NHS ester) to the Lys side chain; C-terminal amide
For B3, the “activity relative to CA28 on a molar basis, classical complement inhibition assay” value is around 30% and the “complement inhibiting activity relative to CA28 on a molar basis” value is ~30 % of the activity of CA28.

The values are drawn from patent publication US10125171 (APELLIS PHARMACEUTICALS, dated 2018).
